Measured values: paper doi:10.1101/2022.05.06.490478 (bioRxiv, 2022)

How the values were obtained:
single molecule pulldown = molecular target: the molecule itself; assay: single molecule pulldown
cryo-EM structure = molecular target: the molecule itself; assay: cryo-EM structure

Protein	stoichiometry N (single molecule pulldown)	stoichiometry N (cryo-EM structure)
C. elegans TMC-1 with C-terminal 3C site-mVenus-3xFLAG (tmc-1::mVenus knock-in) (natural protein, UniProt D3KZG3 1-1285, looked up) MQEAARRASLRKEHTPTNEKFGDLSKQDSLGERASSKLTLDDELYDILYAFGETDAFINKGDKQRETDEDGNPLTRQALLERIRQKKEVIGKLRCQAWSMTRKRRTLKLAQKYLEQHESKVSRSHLYMEEMRKRARLMKRSFSNFKTYLIPWESKIKRIESHFGSVVSSYFTFLRWIVFVNIMITLIALVFVVLPETLADSVANEGRFNRTKTRKQIPANERVHADELAVVWHYDGYLRYSPLFYGYYSDDPFLGNKIKYALPLAYFMVTLTIFAYSFFAILRKMAANARMSKLSGSKAEQYIFNWKLFTGWDYTIGNSETASNTVMAVVIKLRESIADIKKDAHGKFRLLQFSLRVFANIIICAMLGFSIYCIIFAVQKSQVQDDGNLFTKNQVPSVVSTITHVFPMIFDLIGKMENYHPRTALRAHLGRVLILYTVNYITLIFALFEKMTALRDRVNSTSTSSSHRTKRQQGGWNPNMQRPPPYASRAEVRQMSDFLAANTRRFQTVSQRTTRSVTTPFTVAPQFGPFNVNNPNAVFHNGTHSTSFESQILGPKALPIFTPPPRKYPGFTPGNVGQQFGGPDFPRNQVYTKSTPLPRVRTKPPWVYTTTHPPLVQNRAMTTTMSKSAKKGNSKNLDDDILLSNETIQMSEAALRRNHDGHNNDICWETIIGQEIVKLVTMDLIFTILSILVIDLFRGLWIKYCSSWWCWDIETTFPEYGEFKVAENVLHIINNQGMIWLGLFFAPLLPAINNIKLIILMYIRGWAVMTCNVPAREIFRASRSSNFYLGILLIWLLLCTLPVGFVIASMSPSRSCGPFARYQHFYTVVTREIEKRVDQTVLSYIRHIASPGVVIPIILFLILIIYFLFSLVRGLREANTDLQAQLVHERTEEKKKIFELAGGKKNKFEKDRDKKRSNDYIPLIEQRRREPWRQYHEMEADHALASDSSEESDINEDEDDERQPLTAYPLRAIETPPETLQVTAFHPSLGSLIENREMEDEESASGDQLPMIHKSVSFQGPSHMQMRQSISTESCSQISRSAIQVATPEEIRALLRPYLEAKYGIPYQHGIKSFPIDVHTPPNNTPSRRSSKYNSFVSLYEHTRDDHKNFVASTIKETDEDPGKSDKKQTSSKDVAPDFMPWPSADEARALREKMKSKTPLMLTKTTVEEKPKGGKSSESEFRPPVPIHRKYNIQTTEEENEEEETDSAPESSKKRFRISVSPTKTIAPASASRAQHKIVSQASSSSSIPHGRQPDPNKKASLVLPPLRAPRVQFDEDDSPRQID	2	
C. elegans TMC-1 (pore-forming subunit of the native TMC-1 complex), after removal of mVenus-3xFLAG by 3C protease (natural protein, UniProt D3KZG3 1-1285, looked up, N-linked glycan at N209) MQEAARRASLRKEHTPTNEKFGDLSKQDSLGERASSKLTLDDELYDILYAFGETDAFINKGDKQRETDEDGNPLTRQALLERIRQKKEVIGKLRCQAWSMTRKRRTLKLAQKYLEQHESKVSRSHLYMEEMRKRARLMKRSFSNFKTYLIPWESKIKRIESHFGSVVSSYFTFLRWIVFVNIMITLIALVFVVLPETLADSVANEGRFNRTKTRKQIPANERVHADELAVVWHYDGYLRYSPLFYGYYSDDPFLGNKIKYALPLAYFMVTLTIFAYSFFAILRKMAANARMSKLSGSKAEQYIFNWKLFTGWDYTIGNSETASNTVMAVVIKLRESIADIKKDAHGKFRLLQFSLRVFANIIICAMLGFSIYCIIFAVQKSQVQDDGNLFTKNQVPSVVSTITHVFPMIFDLIGKMENYHPRTALRAHLGRVLILYTVNYITLIFALFEKMTALRDRVNSTSTSSSHRTKRQQGGWNPNMQRPPPYASRAEVRQMSDFLAANTRRFQTVSQRTTRSVTTPFTVAPQFGPFNVNNPNAVFHNGTHSTSFESQILGPKALPIFTPPPRKYPGFTPGNVGQQFGGPDFPRNQVYTKSTPLPRVRTKPPWVYTTTHPPLVQNRAMTTTMSKSAKKGNSKNLDDDILLSNETIQMSEAALRRNHDGHNNDICWETIIGQEIVKLVTMDLIFTILSILVIDLFRGLWIKYCSSWWCWDIETTFPEYGEFKVAENVLHIINNQGMIWLGLFFAPLLPAINNIKLIILMYIRGWAVMTCNVPAREIFRASRSSNFYLGILLIWLLLCTLPVGFVIASMSPSRSCGPFARYQHFYTVVTREIEKRVDQTVLSYIRHIASPGVVIPIILFLILIIYFLFSLVRGLREANTDLQAQLVHERTEEKKKIFELAGGKKNKFEKDRDKKRSNDYIPLIEQRRREPWRQYHEMEADHALASDSSEESDINEDEDDERQPLTAYPLRAIETPPETLQVTAFHPSLGSLIENREMEDEESASGDQLPMIHKSVSFQGPSHMQMRQSISTESCSQISRSAIQVATPEEIRALLRPYLEAKYGIPYQHGIKSFPIDVHTPPNNTPSRRSSKYNSFVSLYEHTRDDHKNFVASTIKETDEDPGKSDKKQTSSKDVAPDFMPWPSADEARALREKMKSKTPLMLTKTTVEEKPKGGKSSESEFRPPVPIHRKYNIQTTEEENEEEETDSAPESSKKRFRISVSPTKTIAPASASRAQHKIVSQASSSSSIPHGRQPDPNKKASLVLPPLRAPRVQFDEDDSPRQID		2
